Measured values from US20230331827A1, “POTASSIUM CHANNEL INHIBITORS” (priority 2017, published 2023).

T1: huASIC1a (Homo sapiens, UniProt P78348)
T1 construct: host or cells: HEK293
T1 sequence (P78348 1-528): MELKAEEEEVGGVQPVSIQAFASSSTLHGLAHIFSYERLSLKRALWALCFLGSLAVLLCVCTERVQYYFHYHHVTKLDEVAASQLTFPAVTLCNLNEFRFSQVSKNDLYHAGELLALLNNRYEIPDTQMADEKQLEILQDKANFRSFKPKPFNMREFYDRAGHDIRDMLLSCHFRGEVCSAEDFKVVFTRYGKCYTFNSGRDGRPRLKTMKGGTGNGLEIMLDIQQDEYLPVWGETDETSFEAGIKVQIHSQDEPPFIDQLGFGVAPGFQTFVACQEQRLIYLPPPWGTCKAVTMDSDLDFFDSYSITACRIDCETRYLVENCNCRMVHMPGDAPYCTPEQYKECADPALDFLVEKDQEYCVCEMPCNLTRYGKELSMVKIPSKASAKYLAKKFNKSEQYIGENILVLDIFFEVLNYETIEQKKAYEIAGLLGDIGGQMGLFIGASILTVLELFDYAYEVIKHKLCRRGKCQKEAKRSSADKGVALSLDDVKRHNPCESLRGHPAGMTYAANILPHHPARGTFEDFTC

B1: KB_A07: EETI-II knottin fused into VL CDR2, D1A12 VH; parental KnotBody, isotype control (antibody, V domains shown)
VH: EVQLVESGGGLVRPGGSLRLSCAASGFTFSSYAMSWVRQAPGKGLEWVSAISGSGGSTYYADSVKGRFTISRDNTKNSLYLQMTSLRADDTAFYYCVKDFGPGYGTGWFDYWGPGTLVTVSS
VL: DIQMTQSPSSLSASVGDRVTITCRASQSISSYLNWYQQKPGKAPKLLIYAAGVCPRILMRCKQDSDCLAGCVCGPNGFCGSRSGVPSRFSGSGSGTDFTLTISSLQPEDFATYYCQQGASPPYTFGQGTKVEIKRT
B2: KB_A12: EETI-II knottin fused into VL CDR2, D1A12 VH; parental KnotBody, isotype control (antibody, V domains shown)
VH: B1 VH
VL: QSVLTQPPSVSEAPRQRVTITCSGSSSNIGNNAVNWYQQLPGKAPKLLIYAAGRCPRILMRCKQDSDCLAGCVCGPNGFCGANSGVSDRFSAAKSGTSASLAINGLRSEDEADYYCAAWDDSLNGYVFGTGTKLTVLGQP

Key:
huASIC1a = target: T1, huASIC1a; test: QPatch electrophysiology, HEK293 cells stably expressing huASIC1a; assay type: cell-based; details: ASIC1a current at pH 6.0 after 15-20 minutes KnotBody pre-incubation, 2.3-6.6 µM
Method: Knottin Kv 1.3 and ASIC1a blockers expressed in the KnotBody format (see examples 6 and 7) were tested for their ability to inhibit the function of the ion channel targets. The effect of these KnotBodies on cells expressing the human Kv 1.3 (huKv1.3) or human ASIC1a channels was assessed using QPatch automated whole-cell patch-clamp electrophysiology (Sophion).
To functionally assess the ASIC1a KnotBodies, HEK293 cells stably expressing huASIC1a (Sophion) were analysed using a QPatch electrophysiology assay in the presence or absence of the KnotBody fusions (using KB_A12 as a recipient and replacing the original EETI-II donor as shown in Table 8). The “parental” KB_A12 with the EETI-II donor was used as a negative control. Internal and external physiological solutions were freshly prepared prior to the assay. The extracellular solution contained 145 mM NaCl, 4 mM KCl, 2 mM CaCl2, 1 mM MgCl2, 10 mM HEPES and 10 mM glucose; the pH was adjusted to 7.4 with NaOH (for control, resting-state pH) or 6.0 with MES (for acidic, activating-state pH); the osmolarity was ~ 305 mOsm/L. The intracellular solution contained: CsF (140 mM), HEPES (10 mM), NaCl (10 mM) and EGTA/CsOH (1 mM/5 mM); the pH was adjusted to 7.3 with CsOH; osmolarity was ~ 320 mOsm/L.
Throughout ASIC 1a recordings the recording cell membrane voltage was clamped at -60 mV. ASIC1a baseline control currents were elicited by applying external solution at activating pH 6.0 for 3000 ms. This activating pH application was repeated three further times, giving four baseline control ASIC1a currents. The recording cells were then pre-incubated with KnotBody diluted in external solution at pH 7.4 for 15-20 minutes. Following this KnotBody pre-incubation the same concentration of KnotBody in external solution at activating pH 6.0 was applied to the cell recording.
At the end of each KnotBody incubation and subsequent ASIC1a current activation, a full blocking concentration (300 nM) of the ASIC1a knottin inhibitor PcTx1 (positive control) was perfused onto the cell recording and a final activating pH 6.0 external solution was applied. The percentage remaining signal between activating pH 6.0 baseline (i.e. pre-KnotBody) and post-KnotBody incubation was determined.

LOX-1 = LOX-1 (Homo sapiens, UniProt P78380); test: Phage TRF binding assay on LOX-1; details: phage displayed, FIG. 19
Method: In order to test the functionality of these adhiron-antibody fusions, monoclonal phage prepared from each clone was assessed for binding to LOX-1 in a TRF binding assay. In this assay, LOX-1 (immobilised directly on Maxisorp™ plates) binding of phage displaying adhiron-antibody fusion was detected using a mouse anti-M13 antibody (GE Healthcare) followed by europium conjugated anti-mouse antibody (Perkin Elmer). Parent KnotBodies KB_A07 and KB_A12 (EETI-II fusions) were included as controls. Proteins cMET-FC, GAS6-CD4, FGFR4-CD4, UPA and B-gal were used to examine non-specific binding.

trypsin = test: KnotBody Fab TRF binding assay on biotinylated trypsin; details: for TRF signal for 0.6 ug/mL Fab: Fab 0.6 ug/mL; for TRF signal for 2.4 ug/mL Fab: Fab 2.4 ug/mL; for TRF signal for 10 ug/mL Fab: Fab 10 ug/mL
Method: In order to confirm the trypsin binding ability of KnotBodies in Fab format, purified proteins were tested for binding to trypsin using a TRF binding assay. In this assay binding of KnotBody Fabs ([…]) to biotinylated trypsin (immobilised on streptavidin coated Maxisorp™ plates) was detected using a mouse anti-CH1 antibody followed by a europium conjugated anti-mouse antibody (Table 4). 7 KnotBodies (KB_A04, KB_A01, KB_A05, KB_A07, KB_A08, KB_A10, KB_A12) were chosen for crystallisation. DNA prepared for these clones were transfected into 500 ml HEK-293F cells as described before. Expressed proteins were purified using CaptureSelect IgG-CH1 affinity matrix. Purified proteins were initially subjected to crystallisation trials using commercially available crystallisation screens (Supplier). Well-defined crystals were readily obtained for KB_A12 and KB_A05. Crystallisation conditions for these two clones were further optimised and the following condition was used to generate diffraction quality crystals: 0.1 M MES pH=6.5, 25 %w/v PEG MME 2000 and 0.1 M Tris.Cl, 50% PEG MME, 10 mM NiCl2. Complete diffraction data was collected on these crystals at 100 K under liquid nitrogen stream. Collected data was processed using PROTEUM2 software (Bruker). The crystal structure of the knottin-fused Fab antibodies was resolved using molecular replacement technique^109 using Phenix software v 1.8.1-1168^110. Resulting structure was further refined using Phenix.Refine^111. The templates for molecular replacement were downloaded from PDB website (www.rcsb.org/pdb, PDB codes: 3G04 for light chain and 3QOS for heavy chain). KnotBody KB_A12 and KB_A05 sequences are given below. An additional AlaSer sequence is introduced at the N terminus of the light chain from the Nhe1 site used in cloning.
In order to compare the performance of the KnotBodies with short and long linkers, purified Fabs were tested for binding to trypsin by ELISA. In this assay binding of KnotBody Fabs (at 0.5 µg/ml) to biotinylated trypsin (5 µg/ml immobilised on streptavidin coated Maxisorp™ plates) was detected using a mouse anti-CH1 antibody (Hybridoma Reagent Laboratories) followed by a europium conjugated anti-mouse antibody (Perkin Elmer, Cat. No. AD0124). The trypsin binding capability of KB_A07 and KB_A12 KnotBodies were greatly diminished when the short selected linkers were replaced with long and flexible linkers (FIG. 22).

Molecule	% current remaining (huASIC1a) [%]	binding to LOX-1 (LOX-1)	TRF signal for 0.6 ug/mL Fab (trypsin)	TRF signal for 2.4 ug/mL Fab (trypsin)	TRF signal for 10 ug/mL Fab (trypsin)
B1	70.9	no detectable binding to the LOX-1	107814	201003	226082
B2	67.4	no detectable binding to the LOX-1	102132	221989	252832
